In patent US20240132578A1:

Assays:
Test in all cases: cell-based or functional assay
[1] = target: HIV-1 Env of isolate MGRM-A-009 (clade A pseudovirus) (HIV-1)
[2] = target: HIV-1 envelope glycoprotein (Env) of isolate MGRM-C-005 (HIV-1)
[3] = target: HIV-1 Env of pseudovirus MGRM-G-015 (HIV-1)
[4] = target: HIV-1 MGRM-AG-011 Env (pseudovirus) (HIV-1)
[5] = target: HIV-1 Env of pseudovirus MGRM-F1-014 (clade F) (HIV-1)
[6] = target: HIV-1 Env of isolate MGRM-A-008 (clade A pseudovirus) (HIV-1)
[7] = target: HIV-1 Env of pseudovirus MGRM-F1-023 (clade F) (HIV-1)
[8] = target: HIV-1 envelope glycoprotein (Env) of isolate MGRM-C-009 (HIV-1)
[9] = target: HIV-1 Env of isolate 92UG001 (clade D pseudovirus) (HIV-1)
[10] = target: HIV-1 MGRM-AG-006 Env (pseudovirus) (HIV-1)
[11] = target: HIV-1 92TH021 envelope (Env) on pseudovirus (HIV-1)
[12] = target: HIV-1 Env of isolate MGRM-A-014 (clade A pseudovirus) (HIV-1)
[13] = target: HIV-1 92RW021 envelope glycoprotein (Env) on pseudovirus (HIV-1 (clade A))
[14] = target: HIV-1 Env of isolate MGRM-A-010 (clade A pseudovirus) (HIV-1)
[15] = target: HIV-1 Env of isolate MGRM-D-019 (clade D pseudovirus) (HIV-1)
[16] = target: HIV-1 envelope glycoprotein (Env) of isolate MGRM-C-014 (HIV-1)
[17] = target: HIV-1 Env of pseudovirus MGRM-F1-015 (clade F) (HIV-1)

Chain of 1443_C16 (PG16) (TCN-116) (antibody) (VH): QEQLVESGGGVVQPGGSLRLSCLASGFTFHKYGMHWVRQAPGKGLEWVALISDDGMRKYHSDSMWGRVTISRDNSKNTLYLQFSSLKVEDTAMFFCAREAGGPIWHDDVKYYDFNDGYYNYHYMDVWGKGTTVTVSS
Chain of 1443_C16 (PG16) (TCN-116) (antibody) (VL): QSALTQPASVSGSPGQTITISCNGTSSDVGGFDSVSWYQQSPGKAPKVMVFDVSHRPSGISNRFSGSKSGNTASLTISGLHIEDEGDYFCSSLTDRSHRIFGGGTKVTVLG

Substance | IC50 (µg/ml), pseudovirus neutralization [1] [µg/mL] | IC50 (µg/ml), pseudovirus neutralization [2] [µg/mL] | IC50 (µg/ml), pseudovirus neutralization [3] [µg/mL] | IC50 (µg/ml), pseudovirus neutralization [4] [µg/mL] | IC50 [5] [µg/mL] | IC50 (µg/ml), pseudovirus neutralization [6] [µg/mL] | IC50 [7] [µg/mL] | IC50 (µg/ml), pseudovirus neutralization [8] [µg/mL] | IC50, pseudovirus neutralization [9] [µg/mL] | IC50 (µg/ml), pseudovirus neutralization [10] [µg/mL] | neutralization IC50 [11] [µg/mL] | IC50 (µg/ml), pseudovirus neutralization [12] [µg/mL] | IC50 (µg/ml), pseudovirus neutralization [13] [µg/mL] | IC50 (µg/ml), pseudovirus neutralization [14] [µg/mL] | IC50, pseudovirus neutralization [15] [µg/mL] | IC50 (µg/ml), pseudovirus neutralization [16] [µg/mL] | IC50 [17] [µg/mL]
4E10 (antibody) | 12 | 16.4 | 1.07 | 1.36 | 7.36 | 7.59 | 0.44 | 0.56 | 13.6 | 1.76 | 1.9 | 1.74 | 4.87 | 14.4 | 0.04 | 2.48 | 0.53
2G12 (antibody) | 7.47 | > 50 | > 50 | > 50 | > 50 | > 50 | 9.23 | > 50 | > 50 | 3.92 | > 50 | > 50 | > 50 | 17 | > 50 | > 50 | > 50
1443_C16 (PG16) (TCN-116) (antibody) | 0.01 | 2.55 | 5.33 | 0.002 | 0.01 | > 50 | > 50 | > 50 | > 50 | > 50 | 0.127 | 20.3 | 0.11 | 0.004 | 0.01 | > 50 | > 50
